Test results taken from the supplement of paper PMC10201428.
± gives the standard deviation of the averaged measurements.

Tests used:
[1] = test system: VchCAST RNA-guided transposition machinery (E. coli BL21(DE3) host, lacZ target); assay: relative integration efficiency (T-RL orientation) vs wild-type transposon end (log2 (normalized fold change)); transposon end mutated: right end (5 bp flank + 75 bp right end); higher = more efficient transposition
In short: (§1)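 Each barcoded pool, 1549 left-end or 1849 right-end transposon variants in a pUC57 mini-transposon donor, went into E. coli BL21(DE3) with a T7-driven effector plasmid (CRISPR array, tniQ-cas8-cas7-cas6, tnsA-tnsB-tnsC). Plates contained 0.1 mM IPTG and were held at 37°C for 18 h. Input plasmids and genomic integration junctions were PCR-amplified and read by Illumina sequencing, with two biological output replicates and four reference barcodes. Relative integration efficiency is the fold change of output over input barcode abundance, normalised to the reference barcodes and log-transformed.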

[2] = test system: VchCAST RNA-guided transposition machinery (E. coli BL21(DE3) host, lacZ target); assay: relative integration efficiency (T-LR orientation) vs wild-type transposon end (log2 (normalized fold change)); transposon end mutated: right end (5 bp flank + 75 bp right end); higher = more efficient transposition
In short: as §1

“ACATTTGTTGATACAACCATAAAATGATAATTACACCCATAAATTGATAAGGCGACACAAACGCCCGGTCGCGGTAAGAGGATCATAGTCAGACCAACATTGCTACGACCCGTATTCGCACCGACAC” was tested. Which “relative integration efficiency (log2)” value [1] did it give?
The value was -0.882 ± 0.14.

What about the “relative integration efficiency (log2)” value [2] of the same sequence?
The value was 2.27 ± 0.23.

With “ACATTTGTTGATACAACCATAAAATGATAATTACACCCATAAATTGATAAGGCGCACACCCATAAATTGATATTGCCTCTGATCATAGTCAGACCAACATTGCTACGACCCGTATTCGCACCGACAC” as the sequence, how does the “relative integration efficiency (log2)” value [1] read?
Its value is -0.436 ± 0.083.

And the “relative integration efficiency (log2)” value [2]?
The value was -0.0146 ± 0.0051.

Which results are given for “ACATTTGTTGATACAACCATAAAATGATAATTACACCCATAAATTGATAATAATGACACCGAATTTAACTATAACGCTCTGATCATAGTCAGACCAACATTGCTACGACCCGTATTCGCACCGACAC”?
relative integration efficiency (log2) [1]: 1.54 ± 0.64; relative integration efficiency (log2) [2]: 5.35 ± 0.24

“ACATTTGTTGATACAACCATAAAATGATAATTACACCCATAAATTGATAATATAGACACCCATAAATTGATATTGCCTCTGATCATAGTCAGACCAACATTGCTACGACCCGTATTCGCACCGACAC” was tested. Which “relative integration efficiency (log2)” value [1] did it give?
The value was -0.321 ± 0.15.

And the “relative integration efficiency (log2)” value [2]?
Its value is -0.0877 ± 0.52.

For “ACATTTGTTGATACAACCATAAAATGATAATTACACCCATAAATTGATAATATTCACACCCATAAATTGATATTGCCTCTGATCATAGTCAGACCAACATTGCTACGACCCGTATTCGCACCGACAC”, which “relative integration efficiency (log2)” value [1] is on record?
Its value is -0.274 ± 0.23.

And the “relative integration efficiency (log2)” value [2]?
The value was -0.107 ± 0.095.

With “ACATTTGTTGATACAACCATAAAATGATAATTACACCCATAAATTGATAATCACACCCATAAATTGATATTGCCTCTGATCATAGTCAGACCAACATTGCTACGACCCGTATTCGCACCGACACTGA” as the sequence, how does the “relative integration efficiency (log2)” value [1] read?
Its value is -1.32 ± 0.31.

What about the “relative integration efficiency (log2)” value [2] of the same sequence?
The value was 1.82 ± 0.057.

For “ACATTTGTTGATACAACCATAAAATGATAATTACACCCATAAATTGATAATGATGACACCGAATTTAACTATAACGCTCTGATCATAGTCAGACCAACATTGCTACGACCCGTATTCGCACCGACAC”, which “relative integration efficiency (log2)” value [1] is on record?
The value was -1.34 ± 0.27.

And the “relative integration efficiency (log2)” value [2]?
The value was 2.06 ± 0.097.

How did the “relative integration efficiency (log2)” value [1] turn out when “ACATTTGTTGATACAACCATAAAATGATAATTACACCCATAAATTGATAATGCGAACACCCATAAATTGATATTGCCTCTGATCATAGTCAGACCAACATTGCTACGACCCGTATTCGCACCGACAC” was run?
Its value is -0.292 ± 0.045.

And the “relative integration efficiency (log2)” value [2]?
Its value is 0.16 ± 0.083.

What does the source list for “ACATTTGTTGATACAACCATAAAATGATAATTACACCCATAAATTGATAATGCGACACAAACGCCCGGTCGCGGTAAGAGGATCATAGTCAGACCAACATTGCTACGACCCGTATTCGCACCGACAC”?
relative integration efficiency (log2) [1]: -0.485 ± 0.11; relative integration efficiency (log2) [2]: 2.69 ± 0.1

What does the source list for “ACATTTGTTGATACAACCATAAAATGATAATTACACCCATAAATTGATAATGCTCACACCCATAAATTGATATTGCCTCTGATCATAGTCAGACCAACATTGCTACGACCCGTATTCGCACCGACAC”?
relative integration efficiency (log2) [1]: -0.488 ± 0.1; relative integration efficiency (log2) [2]: 0.654 ± 0.025

With “ACATTTGTTGATACAACCATAAAATGATAATTACACCCATAAATTGATAATTAAAACACCCATAAATTGATATTGCCTCTGATCATAGTCAGACCAACATTGCTACGACCCGTATTCGCACCGACAC” as the sequence, how does the “relative integration efficiency (log2)” value [1] read?
Its value is -0.399 ± 0.27.

And the “relative integration efficiency (log2)” value [2]?
The value was 0.089 ± 0.23.

How did the “relative integration efficiency (log2)” value [1] turn out when “ACATTTGTTGATACAACCATAAAATGATAATTACACCCATAAATTGATAATTAAGACACCCATAAATTGATATTGCCTCTGATCATAGTCAGACCAACATTGCTACGACCCGTATTCGCACCGACAC” was run?
The value was -0.306 ± 0.23.

And the “relative integration efficiency (log2)” value [2]?
Its value is -0.137 ± 0.32.

“ACATTTGTTGATACAACCATAAAATGATAATTACACCCATAAATTGATAATTAAGTGACCCATAAATTGATATTGCCTCTGATCATAGTCAGACCAACATTGCTACGACCCGTATTCGCACCGACAC” was tested. Which “relative integration efficiency (log2)” value [1] did it give?
The value was -0.484 ± 0.16.

What about the “relative integration efficiency (log2)” value [2] of the same sequence?
Its value is 0.91 ± 0.58.

What does the source list for “ACATTTGTTGATACAACCATAAAATGATAATTACACCCATAAATTGATAATTACACCCATAAATTGATATTGCCTCTGATCATAGTCAGACCAACATTGCTACGACCCGTATTCGCACCGACACTGA”?
relative integration efficiency (log2) [1]: -0.821 ± 0.28; relative integration efficiency (log2) [2]: 1.39 ± 0.33

Which “relative integration efficiency (log2)” value [1] does the source give for “ACATTTGTTGATACAACCATAAAATGATAATTACACCCATAAATTGATAATTACCACTCCCAATTTAACTATAACGCTCTGATCATAGTCAGACCAACATTGCTACGACCCGTATTCGCACCGACAC” here?
Its value is -0.782 ± 0.24.

And the “relative integration efficiency (log2)” value [2]?
The value was 2.61 ± 0.18.

Which “relative integration efficiency (log2)” value [1] does the source give for “ACATTTGTTGATACAACCATAAAATGATAATTACACCCATAAATTGATAATTAGAACACCCATAAATTGATATTGCCTCTGATCATAGTCAGACCAACATTGCTACGACCCGTATTCGCACCGACAC” here?
The value was -0.195 ± 0.2.

And the “relative integration efficiency (log2)” value [2]?
The value was -0.0187 ± 0.33.

What does the source list for “ACATTTGTTGATACAACCATAAAATGATAATTACACCCATAAATTGATAATTAGACAACCCATAAATTGATATTGCCTCTGATCATAGTCAGACCAACATTGCTACGACCCGTATTCGCACCGACAC”?
relative integration efficiency (log2) [1]: -0.476 ± 0.18; relative integration efficiency (log2) [2]: 0.737 ± 0.02
